The values that follow come from a protein production outcome set (Wang et al. 2014).

The nature of this series: label from the status in PepcDB records.

In the case of “MTATWEKKEGNEGLLTVTVPAEKVNKALDQAFKKVVKQINVPGFRKGKVPRPIFEQRFGVEALYQDAIDILLPDAYGEAIDETDIKPVAQPEVSVTQIEKGKDFIFEATVTVEPEVKLGDYKGLEIEKQETELSDDELQEAIDHSLGHLAEMVVKEDGVVENGDTVNIDFSGSVDGEEFEGGQAEGYDLEIGSGSFIPGFEEQLEGMKVDEEKDVVVTFPEEYHAEELAGKEATFKTKVNEIKFKEVPELTDEIANELDAEANTVDEYKENLRKRLAEQKATDAENVEKEEAITKATDNTTIDIPEAMVNTELDRMVSEFAQRIQQQGLDLQTYFQISGQDETQLREQMKDDAEQRVKTNLTLTAIAEAEKIEATDEDIDKELEKMSKQFNISVEDIKNTLGNTDIIKNDVRIQKVIDLLRDNAKFVEGTKED”, the protein production entry is “failed”.

On to “MTAVSSPACAIAGKPPMLSMRDIWLRLHRWLALCLGLFLALLGLSGSLLELKGPILRWEVGAQMLQLAPGEHGTLLQQDAWIRAASDAYPQLHKVFGAAPPRQGFLESDNVIVFGALKERPGTGIAMIDPYSGEPRGFFVFEDLWLAKLVALHRSLLLPPAWGSNLVLLYGLALLGSLGSGLYLWWPGRRSWWKAASLRPGSRGNRRLREWHNVAAAWLCLPLLLIAGSGAWLARPDLFTWPGAQPMAIKPLFSAAHGHLLLGTPGAWLAFLCGISLPLLYLTGLLLWWRKRAARRAVQSFKETSHDTP”, for which the protein production entry was “failed”.

For “MTAYIIVGLTPKDAEKLQQYGARVASTLAKYSGEVLVKGSVEQLHGKFEHKAQVILEFPSREDAYNWYHSEEYQALISTRDLGMDSQFQLIG”, the protein production entry is listed as “not failed”.

As for “MTAYWIAHVTIHDMQQYQEYMKLAPAAFQKYGAKFLARGGESVCVEGQAYQRHVIIEFPDLATAQQCYDSEEYKQARLAREGCADVMISFVEG”, the protein production entry was “failed”.

As for “MTCLFSDAPIPDHLYGAIVALGNFDGFHLGHQAVVAAAVARGHAEGRPVIVATFDPHPVRFFCPDLPPFALTTIPQRARLFEKAGADATFVIRFSEAMANLSPEEFIQQQIIDHLKAAGVVTGRDFTFGKGRKGGVDLLQAMGQNLNISVDTIMPVCDQQGAISSTRIREALKQGDPETAARLLSRP”, the protein production result is listed as “failed”.

“MTDAAALPGQPRGGVLSGPATRRAVNVLAPNASAMTLDGTNTWIVAEPDSELAVVIDPGPLDDVHLRNVVDTAERAGRRIALTLLTHGHPDHAEGAARFAELTGTNVRALDPALRLGDEGLAPGDVVTVGGLELRVVPTPGHTSDSLCFHLPADRAVLTGDTVLGRGTTVVAHPDGRLGDYLDSLRRLRSLTVDDGVHTVLPGHGPVLDDAQGAVEFYLAHRAHRLAQVETAVENGYRAPAEVVAHVYADVDRSLWPAAELSVRAQMDYLREHGLI”: the protein production entry was “failed”.

As to “MTDAPADAPLDADARRAVKPVICYPNDSLPRPDLALYRAARASARKTGEVLVPPREGRCFEVKAGQFFRISSVEGPQVGDLNLHNLHDLTERFFSGKTRALHGTHVTTGERLWSNLPYLRPMATIIEDTLGWYGIDQYGGSVHDVIGTRCDPYTGNLLAGGHYHHCCHSNLTRALADHTGLPLHEAEMLVHDVLNVFMCTGFTRDTGQYFMKASPVRPGDYLEFFAEIDLLGNLSACPGGDCSSEHSSDTASCHPLLVEIFAPAEGMLGDWPSPSVNGYDRSHGR”, the protein production result is “not failed”.

With “MTDEKKVPSKPARPARKPRADKPADAKPAAVPKVAAPAVVEGSSTNAAAVKKSLRDGGMTALPSEILFAVGSIPLVVDKDALSTLAAALVASDDPSTWFVANRELIRAVVFVPQQNNVLRATPLLSVRPVASLSSVHNWQVRNHLSGLHVVVGGTGAGKSKWLNAQTPDVTIRWGEPGETFDMEESSIAVADLTEMLAVALLLATADYRVVIDSFRNLVFGITGAAGPGGVSVALYAALTSLNNICAELGVLLVAAINPMSSDDKVSLVYNNIAASVAGMTVVNNAAVVSQTIRSGTGRIFSGEPAPRNDSPVEYHEPRHTQLDEPSGPSARIRLESNNIDPDDENDNRPRRGARISL”, the protein production entry is reported as “not failed”.

With “MTDFQKQFFARLNIEEKQKVSFEDLSNIMYAMAQTVPFENLNVLEKNFKEISQENLKEKILVNNRGGLCYELNPTMYYFLKDAGFDVYLVSGTVYNAANSIWAVDSGHIATILKHHNELYLIEVGFGSYLPLAPVPFSGEVVQSVTGDYRIRKEMTEKGNYMLEMRKNDEFLDQSSTDDWTLGYAFYIEEVDEKKQMQHKKLLLNTMAHHLTKYLLL”, the protein production result was “failed”.

Turning to “MTDIFLEGGRALIGTELVETSLSVAGTDIARVDAARGRARLAIDARNLLVLPGIVDLHGDAFERQMMPRAGVDFPIDVALADSDRQAISNGITTVFHATTCSWEPGLRSADNARGLMEAIERQRPQFAADTRFHLRHETYNLDAEAEISRWLAEGRVDLFAFNDHMDGTVADMAKPRKRNRMVERTGLSSEDFDGLVDRVISRAADVPASVSRLAASARAADVRMLSHDDATPAMRREFRELGADIAEFPINEETARAAASHGDAIVYGAPNVVRGGSHTGWTRASDMIAKGLCSVLASDYYYPAQLLAAFRLAADGVLPLTEAWSLVSAEPARAAGLADRGILAEGRRADILLVDDTVPLRPRLVAVISGGKLVHLTDATRLLSAAAAPREAVVAA”, the protein production entry is reported as “failed”.

Take “MTDIIREYYNKNSKNEWLRLNDPYNRLELFSTMYMIKEYFPQEGKILDIGSGPGRYSIELLKRGYEVSLMDLSEKSIDMAKNNIESMGLKANDYICGDALYLDFIKDNTFDGILLMGPMYHVKSREDRIRILENCMRILKPGGIILIAYINSLGVLKVGLSDFPQEYKDINKIYDLFDEKGFSQEESFTETYFTVPEKAISEVNEVGFNILSRAGAESFLSGQAFYMTKYYLEDKEIYFNLLKVATEKCEDERFRDSTEHLIIVAKK”: the protein production result is “failed”.

For “MTDIMARFVGYTGKVLPDDVTAKLQDLHKKETSQLADVIFTTMIENQRLAKELDRPSCQDTGVIQFLVECGANFPLIGELEALLRESVIKATIDSPLRHNSVETFDEYNTGKNVGKGTPTVFWEIVPNSDQCSIYTYMAGGGCSLPGKAMVLMPGAGYEGVTRFVLDVMTSYGLNACPPLLVGVGVATSVETAALLSKKALMRPIGSHNDNERAALLEKMLEDGINKIGLGPQGMSGNTSVMGVNIENTARHPSTIGVAVNVGCWSHRKGHIVFDKDLNYTITSHKGVAF”, the protein production entry is “failed”.

Turning to “MTDIVLADRYRLGDVIGTGGMSEVYEATDVLLGRKVAVKMLRADLARDVNFRERFRREAQNSGKLNHPAIVAVYDTGETPRAGLNTPYIVMELVNGRTLRDIVREDGPLTPSQAAHTLIPVCHALQVSHDAGIIHRDIKPANVMITNTGAVKIMDFGIARALDDATSAMTQTSAVIGTAQYLSPEQARGKLADARSDVYALGCVLYETLTGKPPFEGETPFAVAYQHVQEDPVKPSEYIADLSPTAAINVDAVVLTAMAKHPGDRYQTAQEMCADLERLGRNAVTDAARHYVTPTSFATQDPASTTVVPVTQVTELDHAEAGAGIGAGVVPAGAVAGSAAVAGSGGAHAAPRSSNRGLRILAAILAVLVLAVGAGFAIDYFGGGPFSQRSTVTIPKLQNSTQQDAVNQLEKLGLQVNVIEEPNPDIPRGKVIRTNPTDGSNVQRNSTVRLTISSGKEITEVPDLSGKNTADAVKILEAAGLLLDPTVREDSSDTVPKGEIIEVSPAAGSQVSRGSKVSITVSTGVETVRVPVITGMKWDQAEGNLTSLGFKPEVVRVDSVEPAGTVVAVPDEGAEVPKGSSVTVQISNGAMFTVPEITRQTIDDAVRILHDAGWKGNASRLIQAAKVPTVAVTDQNLIASQLPTPGTALRKDAPIEIRLYEFNLAALVPPAQH”, the protein production result is “failed”.

Take “MTDLELQQLTQRIAQESFGKSFPYKVVFNQRLKTTGGRYHLNDHHIDINPLMLEEFDEATLIGVIKHELVHYFVHMLNEKPDHRNPHFQQLLRAVGGLRYAPTTSKRRRTPPKLLYQCQGCGLQYPRQRRINTRKYVCSKCRGRLKLL”: the protein production entry is listed as “failed”.
